What was measured:
[1] = biological target: T1, TetR-EYFP-ZNF518B^770–987 (human, UniProt Q9C0D4 770-987); test: fluorescence microscopy-based interaction-trap
T1 sequence: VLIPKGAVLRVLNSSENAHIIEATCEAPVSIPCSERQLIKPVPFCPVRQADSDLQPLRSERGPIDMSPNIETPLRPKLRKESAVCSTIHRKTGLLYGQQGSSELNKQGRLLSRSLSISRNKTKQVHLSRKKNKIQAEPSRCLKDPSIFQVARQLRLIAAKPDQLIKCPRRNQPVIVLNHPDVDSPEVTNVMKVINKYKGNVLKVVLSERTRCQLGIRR

[2] = biological target: T2, TetR-EYFP-ZNF518B^878–987 (human, UniProt Q9C0D4 878-987); test: fluorescence microscopy-based interaction-trap
T2 sequence: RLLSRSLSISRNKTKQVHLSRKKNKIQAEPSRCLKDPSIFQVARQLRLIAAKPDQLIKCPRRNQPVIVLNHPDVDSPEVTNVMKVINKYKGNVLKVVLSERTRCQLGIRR

[3] = biological target: T3, TetR-EYFP-ZNF518B^344–987 (human, UniProt Q9C0D4 344-987); test: fluorescence microscopy-based interaction-trap
T3 sequence: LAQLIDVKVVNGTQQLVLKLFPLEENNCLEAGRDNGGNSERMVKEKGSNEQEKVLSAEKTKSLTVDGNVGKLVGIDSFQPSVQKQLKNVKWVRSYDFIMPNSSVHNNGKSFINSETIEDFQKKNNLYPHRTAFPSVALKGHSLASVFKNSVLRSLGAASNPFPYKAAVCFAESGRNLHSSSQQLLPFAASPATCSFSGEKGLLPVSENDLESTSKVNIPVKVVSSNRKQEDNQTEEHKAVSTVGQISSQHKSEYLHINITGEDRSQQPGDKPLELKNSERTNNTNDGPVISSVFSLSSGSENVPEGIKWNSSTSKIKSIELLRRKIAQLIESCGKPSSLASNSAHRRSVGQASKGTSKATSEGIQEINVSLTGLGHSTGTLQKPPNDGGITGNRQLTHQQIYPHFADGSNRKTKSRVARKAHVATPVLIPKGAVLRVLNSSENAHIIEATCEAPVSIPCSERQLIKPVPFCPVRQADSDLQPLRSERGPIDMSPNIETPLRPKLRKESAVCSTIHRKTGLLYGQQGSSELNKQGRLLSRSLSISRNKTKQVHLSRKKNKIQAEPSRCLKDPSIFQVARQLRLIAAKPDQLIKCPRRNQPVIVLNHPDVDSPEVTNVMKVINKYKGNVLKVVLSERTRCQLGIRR

[4] = biological target: T4, TetR-EYFP-ZNF518B^878–1074 (human, UniProt Q9C0D4 878-1074); test: fluorescence microscopy-based interaction-trap
T4 sequence: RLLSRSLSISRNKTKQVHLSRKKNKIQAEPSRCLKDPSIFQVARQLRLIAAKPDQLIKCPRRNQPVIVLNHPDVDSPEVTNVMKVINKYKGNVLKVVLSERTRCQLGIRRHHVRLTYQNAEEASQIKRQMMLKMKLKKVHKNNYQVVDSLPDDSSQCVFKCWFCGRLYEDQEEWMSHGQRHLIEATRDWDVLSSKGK

[5] = biological target: T5, TetR-EYFP-ZNF518B^344–1074 (human, UniProt Q9C0D4 344-1074); test: fluorescence microscopy-based interaction-trap
T5 sequence: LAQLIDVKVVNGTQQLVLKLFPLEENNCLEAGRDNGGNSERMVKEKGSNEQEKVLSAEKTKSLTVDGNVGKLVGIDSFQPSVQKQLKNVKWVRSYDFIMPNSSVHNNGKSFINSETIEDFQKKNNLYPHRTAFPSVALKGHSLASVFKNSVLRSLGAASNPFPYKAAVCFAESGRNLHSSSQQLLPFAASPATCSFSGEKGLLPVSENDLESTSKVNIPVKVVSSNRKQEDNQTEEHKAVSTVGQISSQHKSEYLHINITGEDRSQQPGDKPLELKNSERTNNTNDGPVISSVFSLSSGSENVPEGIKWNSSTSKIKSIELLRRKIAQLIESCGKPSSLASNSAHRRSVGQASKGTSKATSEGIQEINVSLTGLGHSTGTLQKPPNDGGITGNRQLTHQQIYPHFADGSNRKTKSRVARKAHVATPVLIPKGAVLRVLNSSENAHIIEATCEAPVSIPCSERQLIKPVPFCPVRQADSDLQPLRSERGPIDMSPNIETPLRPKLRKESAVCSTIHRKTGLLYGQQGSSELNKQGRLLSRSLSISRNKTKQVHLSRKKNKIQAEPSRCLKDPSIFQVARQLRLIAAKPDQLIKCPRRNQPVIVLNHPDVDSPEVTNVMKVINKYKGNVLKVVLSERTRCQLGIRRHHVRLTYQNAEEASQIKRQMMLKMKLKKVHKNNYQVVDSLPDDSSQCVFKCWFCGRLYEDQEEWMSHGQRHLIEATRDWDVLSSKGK

[6] = biological target: T6, TetR-EYFP-ZNF518B^555–1074 (human, UniProt Q9C0D4 555-1074); test: fluorescence microscopy-based interaction-trap
T6 sequence: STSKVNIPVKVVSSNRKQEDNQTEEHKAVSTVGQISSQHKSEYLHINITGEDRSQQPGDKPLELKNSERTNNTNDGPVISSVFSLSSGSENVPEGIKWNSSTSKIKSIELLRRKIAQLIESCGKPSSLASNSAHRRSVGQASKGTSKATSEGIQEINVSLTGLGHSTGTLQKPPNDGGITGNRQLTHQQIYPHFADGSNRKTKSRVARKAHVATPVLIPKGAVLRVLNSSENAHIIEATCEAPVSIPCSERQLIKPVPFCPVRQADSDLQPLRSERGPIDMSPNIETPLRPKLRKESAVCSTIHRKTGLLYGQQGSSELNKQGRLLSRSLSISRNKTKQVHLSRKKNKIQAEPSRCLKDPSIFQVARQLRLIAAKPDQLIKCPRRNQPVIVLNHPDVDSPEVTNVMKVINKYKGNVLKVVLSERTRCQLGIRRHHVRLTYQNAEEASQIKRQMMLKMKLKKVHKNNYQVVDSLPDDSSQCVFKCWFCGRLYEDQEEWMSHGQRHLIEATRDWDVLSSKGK

HAT-MBP-ZNF518B^770–987 = biological target: T7, HAT-MBP-ZNF518B^770–987 (human, UniProt Q9C0D4 770-987); test: pull-down
T7 sequence: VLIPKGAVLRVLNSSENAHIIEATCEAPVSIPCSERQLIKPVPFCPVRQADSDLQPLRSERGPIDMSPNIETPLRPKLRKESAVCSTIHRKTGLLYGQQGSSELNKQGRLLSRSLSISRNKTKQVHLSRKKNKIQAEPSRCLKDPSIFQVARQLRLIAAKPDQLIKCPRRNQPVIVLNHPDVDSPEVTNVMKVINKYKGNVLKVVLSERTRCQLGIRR

TetR-EYFP-ZNF518B^WT = biological target: T8, TetR-EYFP-ZNF518B^WT (human, UniProt Q9C0D4 1-1074); test: fluorescence microscopy-based interaction-trap
T8 sequence: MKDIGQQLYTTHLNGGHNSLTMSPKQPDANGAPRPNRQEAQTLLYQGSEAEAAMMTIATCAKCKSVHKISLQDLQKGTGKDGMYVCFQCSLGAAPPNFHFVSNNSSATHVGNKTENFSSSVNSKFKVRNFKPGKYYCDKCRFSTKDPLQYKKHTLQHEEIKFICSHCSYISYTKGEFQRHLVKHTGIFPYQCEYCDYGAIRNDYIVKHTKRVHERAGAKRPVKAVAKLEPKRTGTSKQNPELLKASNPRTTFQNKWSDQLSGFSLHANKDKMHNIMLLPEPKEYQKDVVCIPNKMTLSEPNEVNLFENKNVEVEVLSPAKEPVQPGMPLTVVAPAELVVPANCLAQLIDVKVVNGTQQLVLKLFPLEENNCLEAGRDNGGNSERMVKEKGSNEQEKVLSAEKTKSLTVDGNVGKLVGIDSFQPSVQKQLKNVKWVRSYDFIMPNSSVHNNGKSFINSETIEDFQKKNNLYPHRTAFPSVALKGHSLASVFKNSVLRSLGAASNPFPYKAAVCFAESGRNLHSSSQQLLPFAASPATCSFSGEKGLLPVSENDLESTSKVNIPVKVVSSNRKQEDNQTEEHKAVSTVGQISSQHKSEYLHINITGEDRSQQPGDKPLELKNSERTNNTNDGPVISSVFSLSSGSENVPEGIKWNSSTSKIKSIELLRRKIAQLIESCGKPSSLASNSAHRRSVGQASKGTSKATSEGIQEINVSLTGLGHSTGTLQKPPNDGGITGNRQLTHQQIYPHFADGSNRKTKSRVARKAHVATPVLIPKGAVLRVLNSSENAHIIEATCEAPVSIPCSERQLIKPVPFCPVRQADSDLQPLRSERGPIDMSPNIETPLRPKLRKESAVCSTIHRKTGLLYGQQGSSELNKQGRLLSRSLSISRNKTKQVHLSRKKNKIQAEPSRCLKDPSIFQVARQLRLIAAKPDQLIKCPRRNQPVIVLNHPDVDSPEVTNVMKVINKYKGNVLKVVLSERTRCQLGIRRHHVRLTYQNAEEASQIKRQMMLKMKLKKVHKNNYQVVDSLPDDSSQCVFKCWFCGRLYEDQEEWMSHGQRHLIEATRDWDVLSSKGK

| Binder | % of cells with recruitment to alphoid^tetO [1] | % of cells with recruitment to alphoid^tetO [2] | % of cells with recruitment to alphoid^tetO [3] | % of cells with recruitment to alphoid^tetO [4] | % of cells with recruitment to alphoid^tetO [5] | % of cells with recruitment to alphoid^tetO [6] | binding result (HAT-MBP-ZNF518B^770–987) | % of cells with recruitment to alphoid^tetO (TetR-EYFP-ZNF518B^WT) |
| --- | --- | --- | --- | --- | --- | --- | --- | --- |
| Halo-HP1γ (natural protein, Halo Tag TMR ligand on the Halo tag) not shown | > 75% | > 75% | > 75% | > 75% | > 75% | > 75% | – | – |
| His6-GST-HP1γ (natural protein) not shown | – | – | – | – | – | – | binds | – |
| Halo-HP1β (natural protein, Halo Tag TMR ligand on the Halo tag) not shown | > 75% | > 75% | > 75% | > 75% | > 75% | > 75% | – | 58% |
| His6-GST-HP1β (natural protein) not shown | – | – | – | – | – | – | binds | – |

From doi:10.1101/2022.09.15.508097 (bioRxiv, 2022)
